Source: the nanobody polyreactivity screen of Harvey et al. (2022)

Assay: yeast display, Sf9 membrane polyspecificity reagent, FACS + sequencing; frameworks hold sequencing errors
How it was run: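 Using colony PCR, genes from sorted yeast display clones were amplified, then sequenced on MiSeq at 2 × 250 and filtered by CDR length. The clones had been stained with 10% biotinylated, detergent-solubilized Sf9 membrane reagent for 1 hour at 4 °C and sorted by FACS into low and high (top ~1%) gates on anti-HA and streptavidin fluorescence. Polyreactivity labels come from the gate of origin.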

Row | Sequence | polyreactivity (PSR sort gate)
1 | QVQLVESGGGLVQAGGSLRLSCAATGSTFTSYAMGWYRQAPGKERELVAVISFSGGSTYYADSVKGRFTISRDNAKNTVYLQMNSLKPEDTAVYYCAARIYKRYYWGQGTQVTVSS | high polyreactivity
2 | QVQLVESGGGLVQAGGSLRLSCAATGYTLYYNAMGWYIQAPGKERELVAAITSGGSTSYADSVKGRFTISRDNAKNTVYLQMNRLIPEDTAVYYCAAVFYRRFDYWGQGTQVTVSS | low polyreactivity
3 | QVQLVESGGGLVQAGGSLRLSCAATRSIFFGYAMGWYRQAPGKEREFVAAITASGVRTYYADSVKGRFTISLDNAKNTVYLQMNSLKPEDTAVYYCAARIGTGVLPGRGANSHMDYWGQGTQVTVSS | low polyreactivity
4 | QVQLVESGGGLVQAGGSLRLSCAAYGFILDFYTMGWYRQAPGKERELVAAITNGGSTYYADSVKGRFTISRDNAKNTVYLQMNSLKPEDTAVYYCAAYYRSRHNGYDSWGQGTQVTVSS | low polyreactivity
5 | QVQLVESGGGLVQAGGSLRLSCAAYGFTFASNVMGWYRQAPGKDRELVAAITSGASTNYADSVKGRFTISRDNAKNTVYLQMNSLKPVDTAVYYCAAGRQWYVFYEFDYWGQGTQVTVSS | high polyreactivity
6 | QVQLVESGGGLVQAGGSLRLSCAAYGFTFYPYAMGWYRQAPGKEREVVAASNSGGSTYYADSVKGRFTISRDNAKNTVYLQMNSLKPEDTAVYYCSAYGKRGAVAFYYWGQGTQVTVSS | high polyreactivity
7 | QVQLVESGGGLVQAGGSLRLSCAAYGGIFYSNGMGWYRQAPGKERELVAAITGGDITDYADSVKGRFTISRDNAKNTVYLQMNSLKPEDTAVYYCAVESYPPDYGPRFGSWGQGTQVTVSS | low polyreactivity
8 | QVQLVESGGGLVQAGGSLRLSCAAYGIIFNSYFMGWYRPAPGKERELVAAITGSCGRTYYADSVKGRFTISRDNAKNTVYLQIISLKPEDTAVYYCSATNRGQVYGAWYNSWGQGTQVTVSS | high polyreactivity
9 | QVQLVESGGGLVQAGGSLRLSCAAYGIIFSYNVMGWYRQAPGKEREYVAAITRSGGSTYYADSVKGRFTISRDNAKNTVYLQMNSLKPEDTAVYYCAATTWSGPSRYYDWGQGTQVTVSS | high polyreactivity
10 | QVQLVESGGGLVQAGGSLRLSCAAYGIIIGNNAMGCYRQAPGKERELVAAISRRGGSTYYADSVKGRFTISRDNAKNTVYLQMNSLKPEDTAVYYCAADIYRYNSYDYWGQGTQVTVSS | low polyreactivity
11 | QVQLVESGGGLVQAGGSLRLSCAAYGITFDANAMGWYRQAPGKERELVARISSGGSTNYADSVKGRFTISRDNAKNTVYLQMNSLKPEDTAVYYCAAERIARPTFDYWGQGTQVTVSS | low polyreactivity
12 | QVQLVESGGGLVQAGGSLRLSCAAYGITFRVNPMGWYRQAPGKERELVAAISRGGGSTSYADSVMGRFTISRDNAKNTFYLQMNSLKPEDTAVYFCAREPLAYYVARYDYWGQGTQVTVSS | high polyreactivity
13 | QVQLVESGGGLVQAGGSLRLSCAAYGITFYRNAMGWYRQAPGKEMELVAAITWNGGRTYYADSVKGRFTISRDNAKNTVYLQMNSLKPEDTAVYYCAADSGTLNLASYRYYYWGQGTQVTVSS | low polyreactivity
14 | QVQLVESGGGLVQAGGSLRLSCAAYGLTFPYYVMGWYRPAPGKERELVAAISSSGGSTYYADSVKGRFTISRDNAKNTVYLQMNSLKPEDTAVYYCAAVEIYLAYDLPYWSEMDYWGQGTQVTVSS | low polyreactivity
15 | QVQLVESGGGLVQAGGSLRLSCAAYGNIFYVYVMGWYRQAPGKERELVASITSGASTYYADSVKGRFTISRDNAKNTVYLQMNSLKPEDTAVYYCAAEALGGAGDYSTLYIYDYWGQGTQVTVSS | low polyreactivity
16 | QVQLVESGGGLVQAGGSLRLSCAAYGRIFGWYAMGWYRQAPGKERELVAAISSSTSTYYADSVKGRFTISRDNEKNTVYLQMNSLKPEDTAVYYCNADWYYQRVQYYWYRYDYWGQGTQVTVSS | high polyreactivity

Row | Sequence | polyreactivity (PSR sort gate)
17 | QVQLVESGGGLVQAGGSLRLSCAAYGRIFKYYVMGWYRQAPGKERELVATISSGSGTNYADSVKGRFTISRDNAKNTVYLQMNSLKPEDTAVYYCAARWTPRVRGYNYWGQGTLVTVSS | high polyreactivity
18 | QVQLVESGGGLVQAGGSLRLSCAAYGRIFSYYAMGWYRQAPGKERELVAASSGNGGSTYYADSVKGRFTISRDHAKNTVYLQMNSLKPEDTAVYYCAAVWWSSDWASLYPYSYDHWGQVTQVTVSS | low polyreactivity
19 | QVQLVESGGGLVQAGGSLRLSCAAYGRIIRWYARGWYRPSPGKERALVAAISWSGGSTYYADSVKGRFTISRDNAKNTVYLQLNSLKPEDTAVYYCNTVYAEYDYSTVDYWGQGTQVTVSS | high polyreactivity
20 | QVQLVESGGGLVQAGGSLRLSCAAYGRTFGRYAMGCYRPAPGKERELVAAITVGGGSKYYADSVKGRFTISRDNAKNTVYLQMNSLKPEDTAVYYCNALHTYTYRYDYYYWGQGTQVTVSS | high polyreactivity
21 | QVQLVESGGGLVQAGGSLRLSCAAYGRTFNPYAMGWYRQAPGKERELVARITWSGGRTYYADSVKGRFTISRDNAKNTVYLQMNSLKPEDTAVYYCAARYSKYLYGRFESWGQGTQVTVSS | high polyreactivity
22 | QVQLVESGGGLVQAGGSLRLSCAAYGRTFTTNAMGWYRQAPGKERELVAAISRLGGSTYYADSVKGRFTISRDNAKNTVYLQMNSLKPEDTAVYYCYAHLWIRGYDYWGQGTQVTVSS | high polyreactivity
23 | QVQLVESGGGLVQAGGSLRLSCAAYGRTFTWYSMGWYRQAPGKERELVAAISKSGGSTYYSDSVKGRFTISRDNAKITVYLQMNSLKPEDTAVYYCNAEFYGYFLGYGYWGQGTQVSVSS | low polyreactivity
24 | QVQLVESGGGLVQAGGSLRLSCAAYGRTLGYYAMGWYRPAPGQERELVAAITGSDGSTYADSVKGRFTISRDNAKNTVYLQMNSLKPEDTAVYYCNSKNEHGSLGFDYWGQGTQVTVSS | high polyreactivity
25 | QVQLVESGGGLVQAGGSLRLSCAAYGSIFDSNTMGWYRQAPGKERELVAGISTGGSTNYADSVKGRFTISRDNAKNTVYLQMNSQKPEDTAVYYCNADLGSSYDWGQGTQVTVSS | low polyreactivity
26 | QVQLVESGGGLVQAGGSLRLSCAAYGSIFYSYAMGWYRQAPGKERELVASIRIGSSTNYADSVKGRFTISRDNAKNTVYLQMNSLKPEDSAVYYCAARRFYKYYYGSDYWGQGTQVTVSS | high polyreactivity
27 | QVQLVESGGGLVQAGGSLRLSCAAYGSIIRRYAMGWYRQAPGKERELVATISSGSRTYYADSVKGRFTISRDNAKNTVYLQMNSLKPEDTAVYYCNARSRRVGLTLYNYWGQGTQVTVSS | high polyreactivity
28 | QVQLVESGGGLVQAGGSLRLSCAAYGSIIVRYAMGWYGQAPGKVRELVPTITFRDTSTYYADSVKGRFTSSRDNAKNTVYLQMNSLKPEDSAVYYCNAHIPTNRSYVPAVRGEDDYWGQGTQVTVSS | low polyreactivity
29 | QVQLVESGGGLVQAGGSLRLSCAAYGSIRNFYAMGWNRKAPGKERELVPTISSGGNTHYADSVKGRFTISRDNAKNTVYFQMTSLKPEDTAVYYCNKVTIGGFFWYRAYDYWGQGTQVTVSS | low polyreactivity
30 | QVQLVESGGGLVQAGGSLRLSCAAYGSTFGDYAMGWYRQAPGKERELVAAITIGGITTYADSVKGRFTISRDNAKNTVYLQMNSLKPEDTAVYYCADAERGDWDDYWGQGTQVTVSS | low polyreactivity
31 | QVQLVESGGGLVQAGGSLRLSCAAYGSTFGWYTMGWYRQAPGKERELVATISYGGGITNYADSVKGRFTISRDNAKITVYLQMNSLKPEDTADYDCAVDNTGRSWPYDYWGQGTQVTVSS | low polyreactivity
32 | QVQLVESGGGLVQAGGSLRLSCAAYGSTFNYKAMAWYRQAQGKERELVATITTSGGSTYYADSVKGRFTISRDNAKNTVYLQMNSLKPEDTAVYYCAARYPWSVYRIYGAHYDYWGQGTLVTVSS | low polyreactivity
